Test results: the supplement of paper PMC10065799, “High-throughput profiling of sequence recognition by tyrosine kinases and SH2 domains using bacterial peptide display” (eLife, 2023)

Assays:
[1] = system: AncSZ; assay: phosphorylation enrichment, bacterial display (enrichment ratio); higher = better substrate or ligand; peptides without Tyr show the background
[2] = target: EPHB1 (UniProt P54762); assay: as above
[3] = target: EPHB2 (UniProt P29323); assay: as above
[4] = target: FGFR1 (UniProt P11362); assay: as above
[5] = target: FGFR3 (UniProt P22607); assay: as above
[6] = system: Fer (mouse); assay: as above
[7] = target: Fes (UniProt P07332); assay: as above
[8] = target: Fyn (UniProt P06241); assay: as above
[9] = target: Hck (UniProt P08631); assay: as above
[10] = target: Jak2 (UniProt O60674); assay: as above
[11] = target: MERTK (UniProt Q12866); assay: as above
[12] = system: c-Abl (mouse); assay: as above
[13] = system: c-Src; assay: as above
[14] = target: Grb2 SH2 (UniProt P62993); assay: SH2 binding enrichment of the phosphorylated peptide, bacterial display (enrichment ratio); higher = better substrate or ligand; peptides without Tyr show the background
[15] = target: SHP2-C SH2; assay: as above
[16] = target: c-Src SH2; assay: as above
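Throughout, for SH2 binding enrichment of the phosphorylated peptide, bacterial display: peptide library displayed on the E. coli surface as eCPX fusions, selected cells deep-sequenced, score is each peptide's frequency after selection divided by its frequency in the input.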
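Throughout, for phosphorylation enrichment, bacterial display: 11-residue human phosphosite peptides and single-mutation variants displayed on the E. coli surface, counted by deep sequencing, each peptide's frequency after selection divided by its frequency in the unselected input library; frequency after pTyr selection over input frequency; kinase dosed for 20-30% of maximal phosphorylation in three min.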

Sequence of Hck (P08631 whole entry, looked up): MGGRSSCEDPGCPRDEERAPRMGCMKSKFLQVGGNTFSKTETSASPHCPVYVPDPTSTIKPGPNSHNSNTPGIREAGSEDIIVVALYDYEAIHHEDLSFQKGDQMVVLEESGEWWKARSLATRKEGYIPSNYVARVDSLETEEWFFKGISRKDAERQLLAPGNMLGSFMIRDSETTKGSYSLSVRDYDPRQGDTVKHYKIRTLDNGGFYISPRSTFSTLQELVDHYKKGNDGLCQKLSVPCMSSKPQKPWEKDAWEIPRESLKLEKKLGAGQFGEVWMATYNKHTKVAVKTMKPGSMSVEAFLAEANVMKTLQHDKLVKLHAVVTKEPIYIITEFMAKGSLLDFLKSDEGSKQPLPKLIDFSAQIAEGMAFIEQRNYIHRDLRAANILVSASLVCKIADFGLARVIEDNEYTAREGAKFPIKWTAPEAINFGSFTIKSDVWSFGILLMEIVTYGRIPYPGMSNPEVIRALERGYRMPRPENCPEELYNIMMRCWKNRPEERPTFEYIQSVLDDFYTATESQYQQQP
Sequence of EPHB2 (P29323 whole entry, looked up): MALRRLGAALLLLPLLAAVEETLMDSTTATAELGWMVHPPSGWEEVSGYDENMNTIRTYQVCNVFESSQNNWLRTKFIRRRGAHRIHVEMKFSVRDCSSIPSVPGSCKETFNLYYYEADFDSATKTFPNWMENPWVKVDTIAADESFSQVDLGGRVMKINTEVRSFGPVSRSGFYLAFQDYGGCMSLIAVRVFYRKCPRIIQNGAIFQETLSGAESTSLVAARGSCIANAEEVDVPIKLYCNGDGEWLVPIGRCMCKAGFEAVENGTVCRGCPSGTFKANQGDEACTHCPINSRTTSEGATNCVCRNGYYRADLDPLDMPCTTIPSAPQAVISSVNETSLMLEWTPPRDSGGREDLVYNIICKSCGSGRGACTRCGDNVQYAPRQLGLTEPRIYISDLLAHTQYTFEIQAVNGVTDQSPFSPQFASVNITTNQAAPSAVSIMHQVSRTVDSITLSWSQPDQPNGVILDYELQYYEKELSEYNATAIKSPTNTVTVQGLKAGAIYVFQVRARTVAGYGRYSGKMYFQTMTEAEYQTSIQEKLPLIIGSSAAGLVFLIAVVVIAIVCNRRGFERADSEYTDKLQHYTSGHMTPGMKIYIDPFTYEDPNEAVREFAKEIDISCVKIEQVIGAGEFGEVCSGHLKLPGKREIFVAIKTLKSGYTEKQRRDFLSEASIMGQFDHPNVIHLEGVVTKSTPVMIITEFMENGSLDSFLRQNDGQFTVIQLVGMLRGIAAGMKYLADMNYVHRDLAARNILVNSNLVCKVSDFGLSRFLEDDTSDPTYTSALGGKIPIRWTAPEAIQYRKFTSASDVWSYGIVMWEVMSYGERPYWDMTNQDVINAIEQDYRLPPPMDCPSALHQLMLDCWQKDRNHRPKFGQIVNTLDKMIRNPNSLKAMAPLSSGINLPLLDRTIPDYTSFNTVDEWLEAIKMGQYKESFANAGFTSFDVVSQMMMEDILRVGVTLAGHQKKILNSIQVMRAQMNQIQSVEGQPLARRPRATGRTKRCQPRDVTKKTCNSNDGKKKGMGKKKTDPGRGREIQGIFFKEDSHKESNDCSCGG
Sequence of Jak2 (O60674 whole entry, looked up): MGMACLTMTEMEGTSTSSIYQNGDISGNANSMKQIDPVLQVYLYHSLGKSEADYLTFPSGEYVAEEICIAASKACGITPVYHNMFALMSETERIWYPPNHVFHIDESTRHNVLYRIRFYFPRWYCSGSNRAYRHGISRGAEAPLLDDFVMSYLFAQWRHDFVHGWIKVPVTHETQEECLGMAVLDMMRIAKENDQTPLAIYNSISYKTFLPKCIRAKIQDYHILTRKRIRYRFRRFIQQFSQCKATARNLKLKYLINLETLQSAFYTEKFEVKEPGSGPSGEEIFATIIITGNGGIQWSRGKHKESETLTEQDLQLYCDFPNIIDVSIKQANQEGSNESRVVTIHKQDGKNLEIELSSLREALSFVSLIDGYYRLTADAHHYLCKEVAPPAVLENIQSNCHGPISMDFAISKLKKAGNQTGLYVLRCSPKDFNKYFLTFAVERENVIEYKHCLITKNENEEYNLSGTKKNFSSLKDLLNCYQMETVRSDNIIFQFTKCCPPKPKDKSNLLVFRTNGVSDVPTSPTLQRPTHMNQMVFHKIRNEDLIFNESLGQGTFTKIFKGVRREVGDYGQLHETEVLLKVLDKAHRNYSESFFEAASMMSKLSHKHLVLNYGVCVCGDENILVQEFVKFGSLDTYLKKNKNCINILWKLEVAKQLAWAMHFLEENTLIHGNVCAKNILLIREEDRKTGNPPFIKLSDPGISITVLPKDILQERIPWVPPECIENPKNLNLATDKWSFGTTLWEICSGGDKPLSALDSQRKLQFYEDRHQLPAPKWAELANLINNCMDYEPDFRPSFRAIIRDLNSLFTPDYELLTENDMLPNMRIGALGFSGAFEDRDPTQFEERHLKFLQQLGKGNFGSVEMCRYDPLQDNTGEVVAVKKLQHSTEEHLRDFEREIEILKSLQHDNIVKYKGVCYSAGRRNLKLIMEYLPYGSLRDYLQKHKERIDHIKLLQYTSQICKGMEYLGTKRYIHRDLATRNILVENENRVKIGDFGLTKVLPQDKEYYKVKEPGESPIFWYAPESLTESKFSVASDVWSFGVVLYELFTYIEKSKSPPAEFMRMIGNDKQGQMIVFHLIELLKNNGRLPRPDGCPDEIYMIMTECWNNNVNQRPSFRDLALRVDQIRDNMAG
Sequence of Fes (P07332 whole entry, looked up): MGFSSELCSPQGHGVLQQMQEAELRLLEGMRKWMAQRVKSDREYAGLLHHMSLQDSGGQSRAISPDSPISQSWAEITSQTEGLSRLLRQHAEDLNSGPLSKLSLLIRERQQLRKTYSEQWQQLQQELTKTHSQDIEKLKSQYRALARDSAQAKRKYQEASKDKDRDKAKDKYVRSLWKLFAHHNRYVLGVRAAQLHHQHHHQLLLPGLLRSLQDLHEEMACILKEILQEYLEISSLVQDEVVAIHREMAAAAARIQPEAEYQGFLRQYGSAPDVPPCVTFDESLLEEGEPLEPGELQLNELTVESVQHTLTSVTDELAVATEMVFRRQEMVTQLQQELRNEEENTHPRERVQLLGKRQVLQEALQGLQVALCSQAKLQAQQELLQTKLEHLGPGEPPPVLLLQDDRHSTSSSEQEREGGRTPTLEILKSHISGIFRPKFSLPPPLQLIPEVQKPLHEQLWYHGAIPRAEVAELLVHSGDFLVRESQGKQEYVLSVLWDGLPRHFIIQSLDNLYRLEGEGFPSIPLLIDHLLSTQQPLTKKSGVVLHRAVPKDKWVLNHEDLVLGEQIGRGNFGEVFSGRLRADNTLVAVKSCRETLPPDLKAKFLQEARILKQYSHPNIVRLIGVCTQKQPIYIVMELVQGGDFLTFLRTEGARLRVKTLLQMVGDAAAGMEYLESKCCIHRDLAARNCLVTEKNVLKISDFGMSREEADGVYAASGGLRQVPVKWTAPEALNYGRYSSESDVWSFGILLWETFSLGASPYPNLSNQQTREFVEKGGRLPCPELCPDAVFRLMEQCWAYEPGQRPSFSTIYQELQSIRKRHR
Sequence of EPHB1 (P54762 whole entry, looked up): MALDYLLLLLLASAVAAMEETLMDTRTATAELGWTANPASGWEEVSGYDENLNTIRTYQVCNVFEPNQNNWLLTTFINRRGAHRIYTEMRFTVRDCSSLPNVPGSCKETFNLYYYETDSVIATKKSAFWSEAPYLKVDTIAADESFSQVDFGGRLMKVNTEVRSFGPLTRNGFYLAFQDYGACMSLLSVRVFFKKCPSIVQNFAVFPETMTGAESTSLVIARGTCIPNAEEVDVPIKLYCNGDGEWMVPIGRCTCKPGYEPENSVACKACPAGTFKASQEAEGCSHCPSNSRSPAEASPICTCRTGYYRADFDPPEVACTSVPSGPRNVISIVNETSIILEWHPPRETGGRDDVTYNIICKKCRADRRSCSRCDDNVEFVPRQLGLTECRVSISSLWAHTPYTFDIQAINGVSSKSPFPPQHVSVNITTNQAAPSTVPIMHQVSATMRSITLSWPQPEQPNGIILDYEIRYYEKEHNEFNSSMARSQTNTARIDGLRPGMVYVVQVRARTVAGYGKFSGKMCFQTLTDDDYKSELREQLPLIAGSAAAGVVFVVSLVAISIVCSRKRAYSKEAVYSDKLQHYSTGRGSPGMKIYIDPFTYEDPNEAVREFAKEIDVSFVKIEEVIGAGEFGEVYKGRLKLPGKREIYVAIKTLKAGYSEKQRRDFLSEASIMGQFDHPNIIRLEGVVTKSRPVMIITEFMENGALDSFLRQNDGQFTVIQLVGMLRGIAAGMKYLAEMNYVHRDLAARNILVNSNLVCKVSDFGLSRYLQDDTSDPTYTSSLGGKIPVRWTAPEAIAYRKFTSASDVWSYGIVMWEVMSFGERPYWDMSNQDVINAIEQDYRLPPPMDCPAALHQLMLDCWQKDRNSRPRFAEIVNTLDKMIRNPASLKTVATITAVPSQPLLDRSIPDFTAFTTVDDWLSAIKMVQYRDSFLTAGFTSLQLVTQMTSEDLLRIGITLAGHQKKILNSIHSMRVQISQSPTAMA
Sequence of Grb2 SH2 (P62993 whole entry, looked up): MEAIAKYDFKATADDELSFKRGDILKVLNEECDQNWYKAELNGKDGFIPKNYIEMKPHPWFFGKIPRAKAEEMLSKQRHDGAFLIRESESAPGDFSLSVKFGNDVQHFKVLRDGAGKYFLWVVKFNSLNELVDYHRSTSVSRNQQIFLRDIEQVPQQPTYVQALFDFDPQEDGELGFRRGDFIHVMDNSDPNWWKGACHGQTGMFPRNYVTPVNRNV

Sequence	phosphorylation enrichment [1]	phosphorylation enrichment [2]	phosphorylation enrichment [3]	phosphorylation enrichment [4]	phosphorylation enrichment [5]	phosphorylation enrichment [6]	phosphorylation enrichment [7]	phosphorylation enrichment [8]	phosphorylation enrichment [9]	phosphorylation enrichment [10]	phosphorylation enrichment [11]	phosphorylation enrichment [12]	phosphorylation enrichment [13]	SH2 binding enrichment [14]	SH2 binding enrichment [15]	SH2 binding enrichment [16]
ISSLLYELLEE [TRPC6_Y896_R895L]	1.94	7.24	4.5	0.953	1.35	7.37	1.94	2.14	3.25	1.21	6.1	1.31	3.33	1.04	0.619	0.576
PYRSIYFSSPK [MPG_Y75]	0.878	0.519	0.582	0.778	0.856	0.72	0.648	1.03	1.09	0.657	0.835	0.887	0.903	0.952	1.34	0.594
SSREGYVSHHN [FAM83B_Y433]	0.548	0.345	0.321	0.443	0.464	0.326	0.502	0.457	0.354	0.48	0.453	0.445	0.399	0.76	0.659	0.449
VDSNPYSRLVA [UBA5_Y53_M57V]	0.743	0.55	0.584	0.465	0.559	0.785	0.64	0.553	1.21	0.611	0.445	0.648	1.02	1.38	3.46	1.7
KLSFSYGWALQ [ALDOB_Y302_R304W]	1.52	0.844	0.764	0.676	0.936	0.591	1.8	0.503	0.509	1.72	0.559	1.19	0.585	0.921	0.67	0.558
SVGGLYRDMGA [CBX8_Y321_G317V]	0.699	0.567	0.43	0.541	0.561	0.446	0.791	0.408	0.481	0.734	0.483	0.555	0.385	0.72	0.53	0.393
MKGDFYCFLAE [YWHAG_Y131_R132C_YF]	1.32	1.18	0.88	1.02	1.5	0.644	1.58	0.456	0.695	1.29	2.81	0.971	0.592	0.725	0.742	0.54
PGVDRYSLGTS [C5orf42_Y1451]	0.789	0.577	0.788	0.755	0.745	0.57	0.973	0.702	0.678	0.769	0.788	0.741	0.737	0.576	0.762	0.262
DDSNLYINVKL [MTHFD1_Y52]	1.45	0.777	0.804	0.702	0.994	0.751	1.63	0.443	0.607	1.56	0.424	1.08	0.442	0.824	0.496	0.457
WHHTFYNELRV [ACTA1_Y93]	0.875	0.558	0.483	0.552	0.645	0.54	1.01	0.502	0.997	0.783	0.587	0.657	0.546	1.2	1.52	1.9
DHAGTYGLGDR [MAPT_Y18]	0.429	0.363	0.304	0.406	0.45	0.3	0.576	0.48	0.43	0.507	0.352	0.442	0.533	0.797	0.783	0.588
INVTIYGKTFR [EFHC1_Y177_I174V]	1.18	0.631	0.588	0.539	0.756	0.625	1.29	0.547	0.609	1.1	0.644	0.868	0.641	0.76	0.581	0.572
PLDGEYFTPQI [TP53_Y327_L330P]	6.68	1.53	1.91	3.09	2.19	0.482	1.34	0.89	0.733	0.978	0.474	12.9	0.434	0.816	0.725	0.45
SKHRLYSDLQT [PTCHD1_Y84]	0.5	0.443	0.484	0.339	0.411	0.654	0.715	0.376	0.422	0.406	0.645	0.476	0.371	1.3	1.12	1.57
NCLRQYVAGRF [CRB1_Y711_E710Q]	0.993	0.39	0.492	0.382	0.467	0.367	0.646	0.477	0.337	0.62	0.456	0.576	0.444	0.709	0.571	0.299
MARDIYQASFF [LTK_Y672_R673Q_YF]	0.966	2.15	1.7	0.679	0.564	3.26	0.887	6.4	7.31	0.992	5.44	5.43	6.07	0.972	0.678	0.466
VRSNHYDPEED [TJP1_Y1346]	1.27	0.494	0.608	0.66	0.748	0.49	1.19	0.568	0.579	0.974	0.526	0.688	0.445	1.02	0.744	0.578

Sequence	phosphorylation enrichment [1]	phosphorylation enrichment [2]	phosphorylation enrichment [3]	phosphorylation enrichment [4]	phosphorylation enrichment [5]	phosphorylation enrichment [6]	phosphorylation enrichment [7]	phosphorylation enrichment [8]	phosphorylation enrichment [9]	phosphorylation enrichment [10]	phosphorylation enrichment [11]	phosphorylation enrichment [12]	phosphorylation enrichment [13]	SH2 binding enrichment [14]	SH2 binding enrichment [15]	SH2 binding enrichment [16]
GEDLSYGDLPP [IRS1_Y151_V154L]	1.3	0.661	0.664	0.597	0.786	0.794	1.34	0.571	0.564	1.22	0.543	0.899	0.582	0.868	0.788	0.622
SVTSTYSPALN [TP53_Y126_C124S]	0.641	0.437	0.426	0.511	0.398	0.436	0.712	0.432	0.459	0.465	0.379	0.586	0.488	0.672	0.787	0.491
ALAHKYDGGGG [HBB_Y146_H147D]	0.985	0.464	0.655	0.751	0.494	0.635	0.7	0.367	0.473	0.825	0.54	0.663	0.478	0.765	0.357	0.401
PDDPDYSLVDD [PSTPIP2_Y323_N322D]	1.76	1.13	0.963	0.568	1.01	0.894	1.97	0.569	0.707	2.02	0.668	1.04	0.648	0.642	0.576	0.665
VSTKVYKRFPS [BEST1_Y148_A146K]	0.445	0.344	0.348	0.384	0.305	0.422	0.605	0.366	0.352	0.47	0.365	0.505	0.425	1.1	0.848	0.656
LKVQVYILGRE [ASS1_Y359_G356V]	3.58	1.58	1.88	1.34	1.95	1.59	5.15	1.13	1.49	3.33	1.36	2.44	1.39	1.46	0.968	0.804
DEQKKYYNAMK [SCN5A_Y1494_E1489D]	0.874	0.613	0.543	0.575	0.508	0.35	0.772	0.442	0.458	0.531	0.572	0.594	0.39	1.01	0.711	0.621
FGCTFYNQAIM [MCCC2_Y196_R193C]	1.4	0.825	0.777	0.529	1.04	0.647	1.54	0.472	0.597	1.32	0.365	0.968	0.47	0.685	0.608	0.534
GSERDYTFEEL [EIF2S2_Y174_YF]	1.14	0.571	0.598	0.602	0.749	0.499	1.27	0.453	0.505	1.07	0.479	0.738	0.566	0.897	0.583	0.537
TLKDVYDDGKY [RPS6KA3_Y483]	1.02	0.51	0.497	0.557	0.64	0.506	1.12	0.58	0.706	0.909	0.557	0.758	0.62	0.85	0.737	0.528
HHLSTYTKMLF [CHST8_Y251_R247H]	1.39	0.956	0.902	0.714	1.05	0.504	1.32	0.989	0.814	0.743	0.541	0.792	0.71	1.11	3.88	2.54
MSNVPYVMNRG [ACAT1_Y161]	0.734	0.368	0.421	0.464	0.594	0.377	0.619	0.426	0.399	0.572	0.474	0.527	0.478	0.919	0.657	0.399
DDKEYYSVHNK [MET_Y1235_Y1230D]	1.93	0.563	0.629	1.6	1.51	0.603	1.06	0.529	0.791	1.17	0.405	0.942	0.874	0.813	0.961	0.461
NFFEFYVDDPL [GCHFR_Y48_P53L_YF]	1.09	0.773	0.52	0.501	0.874	0.428	1.11	0.436	0.439	1.07	0.413	0.78	0.489	0.686	0.585	0.485
STKPQYQPGEN [SRC_Y530_E527K]	0.575	0.363	0.36	0.389	0.412	0.311	0.579	0.363	0.361	0.63	0.395	0.519	0.396	0.833	1.09	0.417
EREYKYGAHNY [OAT_Y50]	0.516	0.354	0.376	0.348	0.43	0.35	0.558	0.445	0.333	0.5	0.397	0.506	0.394	0.927	0.783	0.623
